# Reference: patent US20040092720A1 (US Dept. of Health and Human Services, published 2004)
# Target: T1, recombinant human IL-6 (human, UniProt P05231 30-212, labeled with radioactive iodine)
# T1 construct: Labeled probe in solution, added to wells that carry the synthetic peptides; also called IL-6 ligand; Interleukin-6
# Assay: radioiodinated IL-6 on peptide array
# Procedure: Synthetic peptide arrays were constructed in 96-well microtiter plates in accordance with the method set forth in WO 91/02714 (Saxinger), and used to test the binding of recombinant human IL-6 that had been labeled with radioactive iodine (radiolabeling by standard methods). After incubating the radiolabeled IL-6 ligand in a well with each synthetic peptide, a washing step was performed to remove unbound label, and the relative level of radioactivity remaining in each well of the plate was evaluated to determine the relative affinity of each peptide for IL-6 ligand.
row,Binder,Counts/minute bound [counts/minute]
1,PRSTPSLTTKAVLLVRKFQNA (alanine-scan variant of the domain II 21-mer) [Peptide B34],11400
2,PRSTPSLTTKAVLLVRKFQAS (alanine-scan variant of the domain II 21-mer) [Peptide B35],13200
3,PRSTPSATTKAVLLVRKFQNS (alanine-scan variant of the domain II 21-mer) [Peptide B47],8570
4,PRSTPSLTTKAVLLVRAFQNS (alanine-scan variant of the domain II 21-mer) [Peptide B38],11100
5,PRSTPSLTTKAVLLVAKFQNS (alanine-scan variant of the domain II 21-mer) [Peptide B39],10800
6,PRSTPSLTTKAVLLVRKFANS (alanine-scan variant of the domain II 21-mer) [Peptide B36],10100
7,PRSTPSLTTKAVLAVRKFQNS (alanine-scan variant of the domain II 21-mer) [Peptide B41],3760
8,PRSTPSLTTKAVALVRKFQNS (alanine-scan variant of the domain II 21-mer) [Peptide B42],3840
9,PRSTPSLTTKAVLLARKFQNS (alanine-scan variant of the domain II 21-mer) [Peptide B40],4540
10,PRSTPSLTTKAALLVRKFQNS (alanine-scan variant of the domain II 21-mer) [Peptide B43],7160
11,PRSTPSLTTKAVLLVRKAQNS (alanine-scan variant of the domain II 21-mer) [Peptide B37],11600
12,PRSTPSLTAKAVLLVRKFQNS (alanine-scan variant of the domain II 21-mer) [Peptide B45],7490
13,PRSTPSLATKAVLLVRKFQNS (alanine-scan variant of the domain II 21-mer) [Peptide B46],7680
14,PRSTPSLTTAAVLLVRKFQNS (alanine-scan variant of the domain II 21-mer) [Peptide B44],19500
15,SSFYRLRFELRYR [Peptide C9],2170
16,AAGSHPSRWAGMGRRLL [Peptide A5],2750
17,AERSKTFT [Peptide C30],1200
18,AAGSHPSRWAGMGR [Peptide A8],1480
19,RFELRYRAERSKTFT [Peptide C23],5310
20,YRLRFELRYRAERSKTFT [Peptide C20],7570
21,LRYRAERSKTFT [Peptide C26],6380
22,LRFELRYRAERSKTFT [Peptide C22],9610
23,AAGSHPSRWAGMGRRLLLRS [Peptide A2],9760

row,Binder,Counts/minute bound [counts/minute]
1,SSFYRLRFELRYRAERSKTFA [Peptide C34],17000
2,SSFYRLAFELRYRAERSKTFT (alanine-scan variant of the domain III 21-mer) [Peptide C47],9760
3,SSFYRLRFELRYRAERAKTFT (alanine-scan variant of the domain III 21-mer) [Peptide C38],12300
4,SSFYRLRFELRYRAERSKAFT (alanine-scan variant of the domain III 21-mer) [Peptide C36],15000
5,SSFYRLRFEARYRAERSKTFT (alanine-scan variant of the domain III 21-mer) [Peptide C44],14100
6,SSFYRLRFELRYRAEASKTFT (alanine-scan variant of the domain III 21-mer) [Peptide C39],3430
7,SSFYRLRAELRYRAERSKTFT (alanine-scan variant of the domain III 21-mer) [Peptide C46],13400
8,SSFYRLRFALRYRAERSKTFT (alanine-scan variant of the domain III 21-mer) [Peptide C45],26800
9,SSFYRLRFELRYRAERSKTAT (alanine-scan variant of the domain III 21-mer) [Peptide C35],14800
10,SSFYRLRFELRYRAERSATFT (alanine-scan variant of the domain III 21-mer) [Peptide C37],7220
11,SSFYRLRFELAYRAERSKTFT (alanine-scan variant of the domain III 21-mer) [Peptide C43],7550
12,SSFYRLRFELRYRAARSKTFT (alanine-scan variant of the domain III 21-mer) [Peptide C40],17300
13,SSFYRLRFELRYAAERSKTFT (alanine-scan variant of the domain III 21-mer) [Peptide C41],6740
14,SSFYRLRFELRARAERSKTFT (alanine-scan variant of the domain III 21-mer) [Peptide C42],17500
15,SSFYRL (also called SSFYRL) [Peptide C16],865
16,SSFYRLR (also called SSFYRLR) [Peptide C15],991
17,FYRLRFELRYRAERSKTFT [Peptide C19],10100
18,AAGSHPSRWAGM [Peptide A10],1440
19,FELRYRAERSKTFT [Peptide C24],5110
20,SSFYRLRFELR [Peptide C11],1130
21,AAGSHPSRWAGMGRR [Peptide A7],1340
22,RYRAERSKTFT [Peptide C27],3150
23,RSKTFT (also called RSKTFT) [Peptide C32],1340

row,Binder,Counts/minute bound [counts/minute]
1,SSFYRLRFELRYRAER [Peptide C6],2650
2,SSFYRLRFELRYRAERSKTF [Peptide C2],13800
3,ELRYRAERSKTFT [Peptide C25],2200
4,SSFYRLRFE [Peptide C13],1020
5,SSFYRLRFELRYRAERSKT [Peptide C3],8210
6,SSFYRLRFELRYRA [Peptide C8],2510
7,AAGSHPSRWAGMGRRLLL [Peptide A4],5280
8,AAGSHPSRWAG [Peptide A11],1430
9,SSFYRLRFELRYRAE [Peptide C7],1820
10,SSFYRLRFELRY [Peptide C10],1350
11,RLRFELRYRAERSKTFT [Peptide C21],5990
12,AAGSHPSRWAGMGRRLLLR [Peptide A3],8010
13,SSFYRLRF [Peptide C14],952
14,SFYRLRFELRYRAERSKTFT [Peptide C18],12800
15,AAGSHPSRWAGMG [Peptide A9],1470
16,YRAERSKTFT [Peptide C28],2400
17,SSFYRLRFEL [Peptide C12],1030
18,ERSKTFT (also called ERSKTFT) [Peptide C31],1030
19,RAERSKTFT [Peptide C29],1430
20,SSFYRLRFELRYRAERS [Peptide C5],4710
21,SSFYRLRFELRYRAERSK [Peptide C4],7620
